In US20110038790A1 (ONCLAVE THERAPEUTICS, published 2011):

B1: murine monoclonal antibody 2A4 (antibody, V domains shown)
VH: EVQLVESGGRLVQPKGSLKLSCAASGFTFNTYAMYWIRQAPGKGLEWVARIRSKSNNYAIYYADSVKDRFTIFRDDSQSMLYLQMNNLKTEDTAMYYCVRPYSDSFAYWGQGTLVTVSA
VL: DVVMTQTPLSLPVSLGDQASISCRSSQSLVHSTGNTYLHWYLQKPGQSPKLLIYKVSNRFSGVPDRFSGSGSGTYFTLKISRVEAEDLGVYFCSQSTHVPFTFGGGTKLEIK
notes: Mouse IgG2b kappa; Used as hybridoma culture supernatant or protein A-purified mAb; also called mAb 2A4; 2A4.20.44.77
B2: murine monoclonal antibody 7D8 (antibody, mouse IgG2b, V domains shown)
VH: EVQLVESGGRLVQPKGSLKLSCAASGFTFNTYAMYWIRQAPGKGLEWVARIRSKSNNYAIYYADSVKDRFTIFRDDSQSMLYLQMNNLKTEDTAMYYCVRPYSDSFAYWGQGTLVTVSA
VL: DVVMTQTPLSLPVSLGDQASISCRSSLSLVHSTGNTYLHWYLQKPGQSPKLLIYKVSNRFSGVPDRFSGSGSGTYFTLKISRVEAEDLGVYFCSQSTHVPFTFGGGTKLEIK
notes: Mouse IgG2b kappa; also called mAb 7D8; 7D8.29.19.47
B3: peptide 39, CGGHEDT (immunogen peptide EPRB-39) (peptide)
peptide: CGGHEDT
notes: also called p39; p#39
B4: murine monoclonal antibody 8G9 (antibody, mouse IgG2b, V domains shown)
VH: EVQLVESGGRLVQPKGSLKLSCAASGFTFNTYAMYWIRQAPGKGLEWVARIRSKSNNYAIYYADSVKDRFTIFRDDSQSMLYLQMNNLKTEDTAMYYCVRPYSDSFAYWGQGTLVTVSA
VL: DVVMTQTPLSLPVSLGDQASISCRSSQSLVHSTGNTYLHWYLQKPGQSPKLLIYKVSNRFSGVPDRFSGSGSGTYFTLKISRVEAEDLGVYFCSQSTHVPFTFGGGTKLEIK
notes: Mouse IgG2b kappa; also called mAb 8G9; 8G9.3.4.51.22
B5: human AA amyloid (renal AA amyloid extract or tissue deposits) (other, UniProt P0DJI8 19-94, looked up)
chain: RSFFSFLGEAFDGARDMWRAYSDMREANYIGSDKYFHARGNYDAAKRGPGGAWAAEVITDARENIQRFFGHGAEDS
notes: Heterogeneous tissue-derived amyloid; also called human renal AA amyloid extract; human AA amyloid extract
B6: murine AA amyloid (AA fibrils, amyloid enhancing factor extract or tissue deposits) (other, mouse, UniProt P05367 20-94, looked up)
chain: GFFSFIGEAFQGAGDMWRAYTDMKEAGWKDGDKYFHARGNYDAAQRGPGGVWAAEKISDARESFQEFFGRGHEDT
notes: Heterogeneous tissue-derived amyloid; also called Mouse AA (AEF); murine AA fibrils
B7: peptide 41, GHEDTIADQE (peptide)
peptide: GHEDTIADQE
notes: also called p41; p#41

Assays:
peptide 40, CGGAEDS = molecular target: T1, peptide 40, CGGAEDS; assay: BIAcore analysis of peptide binding
T1 peptide: CGGAEDS

peptide 64, CGGAEDT = molecular target: T2, peptide 64, CGGAEDT; assay: BIAcore analysis of peptide binding
T2 peptide: CGGAEDT

peptide 67, CGGHEDA = molecular target: T3, peptide 67, CGGHEDA; assay: BIAcore analysis of peptide binding
T3 peptide: CGGHEDA

[1] = molecular target: B3; assay: ELISA, purified mAb on adsorbed peptide 39
[2] = molecular target: B5; assay: ELISA, purified mAb on adsorbed human AA amyloid extract
Protocol: (§1) Protein Mr markers (Std) are, form top to bottom: 176, 119, 75, 49, 39, 25 and 19 kDa. The interaction of the purified mAbs with immunizing peptide p#39, control peptide (p#41), murine and human AA extracts were determined by ELISA as described above.
(§2) In contrast, even at the highest concentration of mAb used (100 nM) there was little detectable binding to the p#41 peptide (FIG. 33—Each point represents the mean±SE, (n=3 at each concentration)). […] The calculated EC50 values for the mAbs binding to mouse AA extract were essentially identical to those obtained when the p#39 peptide was used as the substrate (FIG. 34; Table 5). […] Because the EC50 value for 7D8 mAb binding was the lowest of the 3 antibodies tested, Applicants selected this reagent for in vivo co-localization and imaging studies. The 2 amino acid substitutions in the human SAA sequence with respect to the murine protein affected the EC50 values.

[3] = molecular target: B6; assay: ELISA, purified mAb on adsorbed mouse AA (AEF)
Protocol: as §1, §2

[4] = molecular target: B6; assay: ELISA, hybridoma culture supernatant on murine AA (AEF)
Excerpt: The interaction of 2A4, 8G9 and 7D8 mAbs with AA amyloid was initially tested by ELISA and the data, given in FIG. 31, analyzed using SigmaPlot (SPSS Inc.). Each point represents the mean±SE (n=3). A culture supernatant from an irrelevant hybridoma was used as a control (Ctrl Culture Sup). […] (In addition, the immunohistochemical reactivity of the day 1 material was greater than the day 2 samples). […] Because of the low signal and high variability found with the culture supernatants and to determine more accurately the relative binding affinity of the mAbs for murine and human AA amyloid fibrils (as well as to provide material for in vivo biodistribution studies) it was necessary to isolate the mAbs by protein A affinity chromatography. The purity of the isolated mAbs was established SDS-PAGE using 10% acrylamide gels under reducing and non-reducing conditions (FIG. 32). Samples in lanes 1-4 treated with mercaptoethanol, lanes 5-9 without. Gel was stained with Coomassie blue: mAb 8G9, lanes 1 and 6; mAb 2A4, lanes 2 and 7; mAb 7D8, lanes 3 and 8; SP2/0 control supernatant, lanes 4 and 9; blank, lane 5. Protein Mr markers (Std) are, form top to bottom: 176, 119, 75, 49, 39, 25 and 19 kDa. The interaction of the purified mAbs with immunizing peptide p#39, control peptide (p#41), murine and human AA extracts were determined by ELISA as described above.

peptide 41, GHEDTIADQE = molecular target: B7; assay: ELISA, purified mAb on adsorbed peptide 41
Protocol: as §1, §2

[5] = molecular target: B1; assay: immunohistochemistry, supernatant (1:25) preincubated with peptide
[6] = molecular target: B2; assay: SPR competition, 7D8 with p39 at 1 µg/mL over immobilized Vλ6 Wil fibrils
[7] = molecular target: B4; assay: immunohistochemistry with peptide inhibition, human ovarian tissue
[8] = molecular target: B4; assay: competition ELISA: human AA amyloid in solution against adsorbed mouse AA (AEF), mAb 8G9
Protocol: (§3) To determine the effect, if any, of potential denaturation when adsorbed to the surface of the microtiter well, the reactivity of the 2A4, 8G9 and […] was evaluated using a competition ELISA in which murine or human AA amyloid extract was used as a soluble competitor for the interaction of the mAbs with surface-bound AA extract.
(§4) In general, the murine AA (AEF) extract was a better competitor than the human AA (Table 6).

[9] = molecular target: B1; assay: competition ELISA: human AA amyloid in solution against adsorbed mouse AA (AEF), mAb 2A4
Protocol: as §3, §4

[10] = molecular target: B2; assay: competition ELISA: human AA amyloid in solution against adsorbed mouse AA (AEF), mAb 7D8
Protocol: as §3, §4

[11] = molecular target: B1; assay: competition ELISA: mouse AA (AEF) in solution against adsorbed human AA amyloid extract, mAb 2A4
Protocol: as §3, §4

[12] = molecular target: B2; assay: competition ELISA: mouse AA (AEF) in solution against adsorbed human AA amyloid extract, mAb 7D8
Protocol: as §3, §4

[13] = molecular target: B4; assay: competition ELISA: mouse AA (AEF) in solution against adsorbed human AA amyloid extract, mAb 8G9
Protocol: as §3, §4

[14] = molecular target: B1; assay: immunohistochemistry, preincubation of 2A4 supernatant with peptide before staining murine AA amyloid
Excerpt: The reactivity of supernatants from hybridomas expressing antibodies 2A4, 8G9 and 7D8 to murine AA splenic and hepatic amyloid deposits (the principal sites of amyloid deposition) was documented immunohistochemically. For these studies, sections of tissue harvested from a TRIAD mouse with extensive AA amyloid in the liver and spleen (as evidenced by green birefringent Congophilic deposits) were stained with the mAb-containing supernatants. All 3 bound to the hepatic and splenic amyloid. In contrast, there was no reactivity with culture supernatants derived from irrelevant hybridomas. The capability of the amyloid using 2A4, 8G9 and 7D8 to immunostain amyloid in fresh (unfixed), OCT-embedded murine liver and spleen was tested. There was evidence that the mAbs retained their ability to bind AA amyloid in the hepatic sinusoid. In addition, the antibody reactivity with splenic tissue was easier to interpret, and the perifollicular amyloid was intensely immunostained. […] In contrast, the p#41 peptide was ineffective.

B1: binds (peptide 40, CGGAEDS); binds (peptide 64, CGGAEDT); binds (peptide 67, CGGHEDA). For the same binder, the EC50 [1] was 3.4 nM, the EC50 [2] was 26.4 nM and the EC50 [3] was 4.09 nM. For the same binder, the “dilution of culture supernatant after which reactivity is absent” value (“dilution of culture supernatant” below) [4] was ~64 dilution factor (1:x) and the EC50 (peptide 41, GHEDTIADQE) was > 100 nM.

B2: binds (peptide 40, CGGAEDS); binds (peptide 64, CGGAEDT); binds (peptide 67, CGGHEDA). The EC50 [1] was 2.3 nM, the EC50 [2] was 13.3 nM and the EC50 [3] was 1.84 nM. For the same binder, the “dilution of culture supernatant” value [4] was ~64 dilution factor (1:x) and the EC50 (peptide 41, GHEDTIADQE) was > 100 nM.

With B3 the binding result [5] was “binds”, the “fold decrease in the extent of binding of 7D8 to Vλ6 Wil fibrils” value [6] was > 2 fold and the binding result [7] was “binds”.

Binder B4 has an EC50 [1] of 4 nM, an EC50 [2] of 31.7 nM and an EC50 [3] of 5.64 nM. For the same binder, the “dilution of culture supernatant” value [4] was ~64 dilution factor (1:x) and the EC50 (peptide 41, GHEDTIADQE) was > 100 nM.

For B5, the IC50 [8] was > 120 µg/mL, the IC50 [9] was > 212 µg/mL and the IC50 [10] was > 881 µg/mL.

B6 showed an IC50 [11] of 14.7 µg/mL, an IC50 [12] of 26.8 µg/mL and an IC50 [13] of 17.3 µg/mL.

B7: no binding (tested: 50 µg/mL) [14].
